Experimental data as given in doi:10.1101/2025.07.21.666041 (bioRxiv, 2025).
Where “and” joins values, the source holds several entries; their conditions need not be identical. Equal entries are not always repeated. Where two headings read alike, the source gives them in different places.

What was measured:
[1] = biological target: Measles virus (MeV) nonstructural protein C, full length, C-terminal GFP-Flag (measles virus) (UniProt P35977); experiment: MST
[2] = biological target: T1, Measles virus (MeV) large (L) protein, full length (measles virus, UniProt P35975 1-2183); experiment: SEC
[3] = biological target: Measles virus L–P complex (full-length L with truncated P 304–507) (measles virus, UniProt P35975;P35974); experiment: MST
cryo-EM structure [4] = biological target: the molecule itself; experiment: cryo-EM structure
cryo-EM structure [5] = biological target: the molecule itself; experiment: cryo-EM structure; remark: listed apart in the source
[6] = biological target: T1, Measles virus (MeV) large (L) protein, …; experiment: cryo-EM structure

T1 sequence (P35975 whole entry, the tested form may be a part): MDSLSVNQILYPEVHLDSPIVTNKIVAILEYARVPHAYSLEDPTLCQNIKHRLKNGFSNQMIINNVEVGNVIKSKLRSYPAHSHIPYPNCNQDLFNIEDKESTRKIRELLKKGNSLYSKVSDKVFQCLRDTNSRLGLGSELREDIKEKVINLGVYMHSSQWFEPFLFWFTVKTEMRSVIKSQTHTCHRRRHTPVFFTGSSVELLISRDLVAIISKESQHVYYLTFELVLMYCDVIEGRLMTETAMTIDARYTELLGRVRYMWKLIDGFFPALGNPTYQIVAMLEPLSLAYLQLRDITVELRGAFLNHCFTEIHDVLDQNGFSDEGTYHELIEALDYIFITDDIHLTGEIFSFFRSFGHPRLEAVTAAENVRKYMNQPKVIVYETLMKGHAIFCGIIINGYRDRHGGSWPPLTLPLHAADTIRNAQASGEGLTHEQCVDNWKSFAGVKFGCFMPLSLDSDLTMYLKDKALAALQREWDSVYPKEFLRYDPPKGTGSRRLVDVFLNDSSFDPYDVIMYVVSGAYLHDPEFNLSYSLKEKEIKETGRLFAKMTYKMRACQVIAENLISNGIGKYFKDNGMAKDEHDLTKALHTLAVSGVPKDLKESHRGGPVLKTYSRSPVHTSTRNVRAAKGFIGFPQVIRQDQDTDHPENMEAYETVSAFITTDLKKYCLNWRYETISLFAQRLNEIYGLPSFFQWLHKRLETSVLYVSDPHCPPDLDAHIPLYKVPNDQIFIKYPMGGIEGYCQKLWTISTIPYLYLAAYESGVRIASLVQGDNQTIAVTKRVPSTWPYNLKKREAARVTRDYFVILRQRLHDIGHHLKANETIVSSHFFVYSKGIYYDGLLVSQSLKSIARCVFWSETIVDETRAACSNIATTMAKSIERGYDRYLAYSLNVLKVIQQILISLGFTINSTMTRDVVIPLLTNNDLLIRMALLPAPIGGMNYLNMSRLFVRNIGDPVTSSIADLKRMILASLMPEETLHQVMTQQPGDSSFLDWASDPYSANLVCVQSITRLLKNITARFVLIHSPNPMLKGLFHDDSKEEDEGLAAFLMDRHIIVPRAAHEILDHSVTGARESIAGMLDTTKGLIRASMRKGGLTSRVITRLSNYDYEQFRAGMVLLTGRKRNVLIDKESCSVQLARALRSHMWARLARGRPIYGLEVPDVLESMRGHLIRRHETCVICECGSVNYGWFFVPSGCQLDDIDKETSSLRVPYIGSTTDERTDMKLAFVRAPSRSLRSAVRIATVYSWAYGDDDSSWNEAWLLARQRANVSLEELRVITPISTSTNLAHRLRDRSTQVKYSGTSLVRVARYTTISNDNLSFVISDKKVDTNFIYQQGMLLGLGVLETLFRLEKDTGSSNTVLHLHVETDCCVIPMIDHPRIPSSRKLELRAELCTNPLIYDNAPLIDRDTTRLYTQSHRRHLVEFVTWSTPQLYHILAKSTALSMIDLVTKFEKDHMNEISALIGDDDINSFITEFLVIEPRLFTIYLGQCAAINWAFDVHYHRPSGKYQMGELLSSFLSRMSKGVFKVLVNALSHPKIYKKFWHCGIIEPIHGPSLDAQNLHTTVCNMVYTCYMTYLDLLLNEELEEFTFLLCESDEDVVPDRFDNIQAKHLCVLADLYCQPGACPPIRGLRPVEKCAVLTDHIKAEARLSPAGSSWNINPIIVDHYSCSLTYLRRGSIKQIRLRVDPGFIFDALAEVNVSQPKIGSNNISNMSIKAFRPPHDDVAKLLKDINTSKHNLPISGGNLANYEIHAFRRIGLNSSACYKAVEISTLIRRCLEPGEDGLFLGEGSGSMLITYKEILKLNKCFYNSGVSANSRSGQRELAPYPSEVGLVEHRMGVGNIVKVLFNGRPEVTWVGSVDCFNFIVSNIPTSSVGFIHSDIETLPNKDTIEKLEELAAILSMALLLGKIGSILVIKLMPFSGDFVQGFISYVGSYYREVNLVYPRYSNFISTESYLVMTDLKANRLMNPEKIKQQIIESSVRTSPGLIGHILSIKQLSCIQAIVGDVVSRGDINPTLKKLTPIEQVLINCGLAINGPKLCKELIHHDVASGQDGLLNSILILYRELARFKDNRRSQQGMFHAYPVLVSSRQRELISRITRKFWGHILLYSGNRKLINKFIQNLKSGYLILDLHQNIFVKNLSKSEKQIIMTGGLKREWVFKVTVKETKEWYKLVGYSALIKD
Sequence of Measles virus L–P complex (full-length L with truncated P 304–507) (P35975 whole entry, the tested form may be a part, one chain of several): as the sequence (P35975 whole entry, the tested form may be a part) above

Molecule: Measles virus nucleoprotein N lacking the N-arm (residues 30–525) (from UniProt P35972 30-525) (domain or fragment)
- Kd [1]: 4.57 µM and 3.92 µM

B1: Measles virus (MeV) phosphoprotein P, full length (natural protein)
chain: MAEEQARHVKNGLECIRALKAEPIGSLAIEEAMAAWSEISDNPGQERATCREEKAGSSGLSKPCLSAIGSTEGGAPRIRGQGPGESDDDAETLGIPPRNLQASSTGLQCYYVYDHSGEAVKGIQDADSIMVQSGLDGDSTLSGGDNESENSDVDIGEPDTEGYAITDRGSAPISMGFRASDVETAEGGEIHELLRLQSRGNNFPKLGKTLNVPPPPDPGRASTSGTPIKKGTERRLASFGTEIASLLTGGATQCARKSPSEPSGPGAPAGNVPEYVSNAALIQEWTPESGTTISPRSQNNEEGGDYYDDELFSDVQDIKTALAKIHEDNQKIISKLESLLLLKGEVESIKKQINRQNISISTLEGHLSSIMIAIPGLGKDPNDPTADVEINPDLKPIIGRDSGRALAEVLKKPVASRQLQGMTNGRTSSRGQLLKEFQPKPIGKKMSSAVGFVPDTGPASRSVIRSIIKSSRLEEDRKRYLMTLLDDIKGANDLAKFHQMLMKIIMK
- binding result [2]: binds

B2: Measles virus (MeV) nonstructural protein C, full length, C-terminal GFP-Flag (natural protein)
chain: MSKTDWNASGLSRPSPSAHWPSRKLWQHGQKYQTTQDRSEPPAGKRRQAVRVSANHASQQLDQLKAVHLASAVRDLERAMTTLKLWESPQEISRHQALGYSVIMFMITAVKRLRESKMLTLSWFNQALMVIAPYQEETMNLKTAMWILANLIPRDMLSLTGDLLPSLWGSGLLMLKLQKEGRSTSS
- Kd [3]: ~0.32 µM
- stoichiometry N (cryo-EM structure [4]): 2

B3: Measles virus (MeV) phosphoprotein P, N-terminally truncated (residues 304–507) (domain or fragment)
chain: GDYYDDELFSDVQDIKTALAKIHEDNQKIISKLESLLLLKGEVESIKKQINRQNISISTLEGHLSSIMIAIPGLGKDPNDPTADVEINPDLKPIIGRDSGRALAEVLKKPVASRQLQGMTNGRTSSRGQLLKEFQPKPIGKKMSSAVGFVPDTGPASRSVIRSIIKSSRLEEDRKRYLMTLLDDIKGANDLAKFHQMLMKIIMK
- stoichiometry N (cryo-EM structure [5]): 4
- binding result [6]: binds
